How the values were obtained:
[1] = system: N[C@@H](CCC[C@H](N)C(=O)O)C(=O)O; assay: purified protein, by the assay type; details: other: reverse assay
[2] = system: O=C(O)C1=N[C@H](C(=O)O)CCC1; assay: purified protein, by the assay type; details: other: forward assay
O=C(O)CCC(=O)C(=O)O = assay: purified protein, by the assay type; details: other: reverse assay
N[C@@H](CCC(=O)O)C(=O)O [3] = assay: purified protein, by the assay type; details: other: forward assay
[4] = system: O=C(O)C1=N[C@H](C(=O)O)CCC1; assay: Quantitative forward and reverse assays of purified LL-DAP transaminases (Example III); type: biochemical, Desulfitobacterium hafniense DCB-2; details: other: forward assay
Description: (§1) This plasmid was transformed into E. coli BL21-CodonPlus®-RIPL for expression and purification of the recombinant protein.
(§2) For protein expression the E. coli strains were grown on LB at 37° C. to an OD600 nm of 0.5 and protein expression was then induced with 1 mM IPTG for 4 hr at 25° C. Cells were lysed by sonication in a solution of 50 mM sodium phosphate and 300 mM NaCl (pH 8.0). Metabolites in the extract were removed by buffer exchange using an Amicon Ultra 30,000 MWCO ultrafilter and sodium phosphate/NaCl buffer, and the concentrated soluble protein sample was used for measurement of enzyme activity as an initial assessment of enzyme function. When the recombinant protein was to be purified a larger cell culture was grown and lysed as described above, but the buffer exchange step was not carried out. […] The pure protein was then concentrated in an Amicon Ultra 30,000 MWCO ultrafilter, replacing the elution buffer with 100 mM HepesKOH, pH 7.6.
N[C@@H](CCC(=O)O)C(=O)O [5] = assay: as above; type: biochemical, Desulfitobacterium hafniense DCB-2; details: other: forward assay
Description: as §1, §2

“Chlamydia trachomatis LL-DAP aminotransferase CT390 (ct390), His-Tag fusion, SEQ ID NO: 9 (Chlamydia trachomatis D/UW-3/CX)” showed a Km ([1]; pH 7.5, 30° C., apparent Km) of 20 µM, a Km ([2]; pH 7.5, 30° C., apparent Km) of 200 µM and a Km (O=C(O)CCC(=O)C(=O)O; pH 7.5, 30° C., apparent Km, pH 7.5, 30.0 °C) of 650 µM. For the same substance, the Km (N[C@@H](CCC(=O)O)C(=O)O [3]; pH 7.5, 30° C., apparent Km) was 1000 µM.

“Desulfitobacterium hafniense LL-DAP transaminase Dhaf_3890 (Desulfitobacterium hafniense DCB-2)” was tested, and the Km [1] was 41 µM, the Km (O=C(O)CCC(=O)C(=O)O) was 300 µM and the Km [4] was 70 µM. For the same substance, the Km (N[C@@H](CCC(=O)O)C(=O)O [5]) was 800 µM.

“Methanothermobacter thermautotrophicus LL-DAP transaminase MTH52 (Methanothermobacter thermautotrophicus str. Delta H)” gave a Km [1] of 30 µM, a Km [2] of 75 µM and a Km (N[C@@H](CCC(=O)O)C(=O)O [3]) of 3000 µM.

For “Synechocystis sp. PCC 6803 LL-DAP transaminase sll0480 (Synechocystis sp. PCC 6803 substr. Kazusa)”, the Km [1] was 17 µM, the Km [2] was 13 µM and the Km (O=C(O)CCC(=O)C(=O)O) was 310 µM. It also gave a Km (N[C@@H](CCC(=O)O)C(=O)O [3]) of 1500 µM.

From US20090158455A1, “COMPOSITIONS AND METHODS FOR MODULATING LYSINE PRODUCTION” (priority 2005, published 2009)
